What all share (experiment): cell-based or functional assay
For assay [1], the target named is protease derived from Fusarium oxysporum IFO 4471 (Fusarium oxysporum IFO 4471).
Assay [2] has as its target protease derived from Bacillus alcalophilus NCIMB 10438 (Bacillus alcalophilus NCIMB 10438).
In assay [3] the target is protease derived from Acremonium chrysogenum ATCC 48272 (Acremonium chrysogenum ATCC 48272).
Assay [4] addresses Sub.Novo, subtilisin from Bacillus amyloliquefaciens (Bacillus amyloliquefaciens) (UniProt P00782).
Assay [5] has as its target protease derived from Paecilomyces lilacinus CBS 102449 (Paecilomyces lilacinus CBS 102449).
Assay [6] concerns the target protease derived from Aspergillus sp. CBS 102448.
The target in assay [7] is Sub.Novo(Y217L), mutant of subtilisin from Bacillus amyloliquefaciens (Bacillus amyloliquefaciens) (UniProt P00782).
For assay [8], the target named is protease derived from Bacillus sp. NCIMB 40484 (Bacillus sp. NCIMB 40484).
For assay [9], the target named is SAVINASE, subtilisin derived from Bacillus clausii (previously Bacillus lentus NCIB 10309) (Bacillus clausii (previously Bacillus lentus NCIB 10309)) (UniProt P29600).

“Streptomyces Subtilisin Inhibitor (SSI) (from UniProt P01006 32-144)”: the Residual activity (%) in assay [1] was determined as 0.1%; in assay [2], 0%; in assay [3], 0.1%; in [4], 0.1%; in assay [5], 0.1%; in assay [6], 0.1%. Moreover, the Residual activity (%) in assay [7] was found to be 0%; in assay [8], 4.3%; in [9], 0%.

Source of the values: patent publication EP1257175B1.
